Publication PMC7296346, “Dynamic Palmitoylation of the Sodium-Calcium Exchanger Modulates Its Structure, Affinity for Lipid-Ordered Domains, and Inhibition by XIP” (Cell Reports, 2020)
Each block holds one molecule with its values, some of them ahead of it.

Legend:
[1] = target: C739A NCX1, full length, tetracycline-inducible in FT-293 cells (canine); test: cross-linking; FT-293 cells expressing tetracycline-inducible NCX1 treated with 0.1 mM BMH for 5 min at 37°C in 10 mM Tris-HCl pH 7.2, 150 mM NaCl; lysed in 1% Triton X-100; SDS-PAGE
[2] = target: the molecule itself; test: as above

stoichiometry N [1]: 2
Molecule: C739A NCX1, full length, tetracycline-inducible in FT-293 cells (natural protein)

B1: wild-type (WT) NCX1, full length, tetracycline-inducible in FT-293 cells (natural protein, canine, UniProt P23685 33-970, looked up)
chain: ETEMEGEGNETGECTGSYYCKKGVILPIWEPQDPSFGDKIARATVYFVAMVYMFLGVSIIADRFMSSIEVITSQEKEITIKKPNGETTKTTVRIWNETVSNLTLMALGSSAPEILLSVIEVCGHNFTAGDLGPSTIVGSAAFNMFIIIALCVYVVPDGETRKIKHLRVFFVTAAWSIFAYTWLYIILSVISPGVVEVWEGLLTFFFFPICVVFAWVADRRLLFYKYVYKRYRAGKQRGMIIEHEGDRPSSKTEIEMDGKVVNSHVDNFLDGALVLEVDERDQDDEEARREMARILKELKQKHPEKEIEQLIELANYQVLSQQQKSRAFYRIQATRLMTGAGNILKRHAADQARKAVSMHEVNTEVAENDPVSKIFFEQGTYQCLENCGTVALTIIRRGGDLTNTVFVDFRTEDGTANAGSDYEFTEGTVVFKPGETQKEIRVGIIDDDIFEEDENFLVHLSNVKVSSEASEDGILEANHVSALACLGSPSTATVTIFDDDHAGIFTFEEPVTHVSESIGIMEVKVLRTSGARGNVIVPYKTIEGTARGGGEDFEDTCGELEFQNDEIVKTISVKVIDDEEYEKNKTFFLEIGEPRLVEMSEKKALLLNELGGFTITGKYLYGQPVFRKVHAREHPIPSTVITIAEEYDDKQPLTSKEEEERRIAEMGRPILGEHTKLEVIIEESYEFKSTVDKLIKKTNLALVVGTNSWREQFIEAITVSAGEDDDDDECGEEKLPSCFDYVMHFLTVFWKVLFAFVPPTEYWNGWACFIVSILMIGILTAFIGDLASHFGCTIGLKDSVTAVVFVALGTSVPDTFASKVAATQDQYADASIGNVTGSNAVNVFLGIGVAWSIAAIYHAANGEQFKVSPGTLAFSVTLFTIFAFINVGVLLYRRRPEIGGELGGPRTAKLLTSCLFVLLWLLYIFFSSLEAYCHIKGF
modifications: palmitoylated at cysteine 739
notes: Na-Ca exchanger 1, canine, NCX1.1 cDNA; Forms a dimer (cross-linking); The cell line is from Reilly et al., 2015; source: in cells or in lysate
stoichiometry N [2]: 2
